These results are taken from the nanobody polyreactivity screen of Harvey et al. (2022).

This data set in a line: yeast display, Sf9 membrane polyspecificity reagent, FACS + sequencing; frameworks hold sequencing errors. The method, boiled down: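 Galactose-induced (36–48 hours) yeast carrying a synthetic nanobody display library were exposed to 10% biotinylated, detergent-solubilized Sf9 membrane reagent at 4 °C for 1 hour. FACS followed streptavidin microbead enrichment, using low and high (top ~1%) gates for expression (anti-HA) and reagent binding (streptavidin). Colony PCR, MiSeq 2 × 250 sequencing and CDR-length filtering followed. Labels for polyreactivity reflect the gate of origin.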
Consider “QFQLVESGGGLVQAGGSLRLSCAASGIIFGRYTKGWYRDAPGKETELVAAITSSGITYYADSVKGRFTISRDNAKNTVYLQMNSLKPEDTAVYYCAADVGYWGRSRGYPSDDYDYWGQGTQVTVSS”, for which the “polyreactivity (PSR sort gate)” value was “low polyreactivity”. Turning to “QFQLVESGGGLVQAGGSLRLSCAASGIILRGYAMGWYRQAPGKERELVASISRGGSTNYADSVKGRFTISRDNAKNTVYLQMNSLKPEDTAVYYSNARIWYYGRYQGAYRFDYWGQGTQVTVSS”, the “polyreactivity (PSR sort gate)” value is “high polyreactivity”. Then “QFQLVESGGGLVQAGGSLRLSCAASGINFGRNTMGMYRQAPGKERELVAAIDSGGNTYADSVKGRFTISRDNAKNTVYLQMNSLKPEDTAVYFCAVDGGEFSSYGYWGQGTQVTVSS”, with “low polyreactivity”. As to “QFQLVESGGGLVQAGGSLRLSCAASGITFSFYAIVWYRQATGKERELVAAINGRGGRTYYADSVKGRFTISRDKAKNTFYLQMNSLKTEDTAVYFCAAVVWRTDYDYWGQGTQVTVSS”, the “polyreactivity (PSR sort gate)” value was “low polyreactivity”.

As to “QFQLVESGGGLVQAGGSLRLSCAASGLIFTANAMGWYRQAPGKERELVASITWSGDSTYYADSVKGRFTISRDNAKNTVYLQMNSLKPEDSAVYYCNARPVYTYVTYDGNYWGQGTQVTVSS”, the “polyreactivity (PSR sort gate)” value was “low polyreactivity”. Consider “QFQLVESGGGLVQAGGSLRLSCAASGRIFNGNAMGLYRQAPGKERELVAASTSDGSTYADSVKGRFTISRDNAKNTVYLQMNSLKPEDTAVYYCNRDGYTNSRGYEFYYWGQGTQVTVSS”, for which the “polyreactivity (PSR sort gate)” value was “low polyreactivity”. Then “QFQLVESGGGLVQAGGSLRLSCAASGRIFRRYTMGWYRQAPGKERELVATITWDGVSTYYADSVKGRFTISRDNAKNTVYLQMNSLKPEDTAVYYCNVDVYYYVLSYQYDYWGQGTQVTVSS”, with “high polyreactivity”; and “QFQLVESGGGLVQAGGSLRLSCAASGRIFVQYAMGWYRQATGKQTEFVAAISYRGGSTYYADSVKGRFTISRDNSKITVYLPMNSLKPEDTAVYYCAIVFPYRGKVTLDYWVQGTQVTVSS”, with “low polyreactivity”; and “QFQLVESGGGLVQAGGSLRLSCAASGRIFVRYAMGLYRKAPGKERELVAAISKSGGSTYYADSVKGRFTISRDNAKNTVYLQMNSLKPEDTAVYYCNALVRRRPGYIRYDYWGQGTQVTVSS”, with “low polyreactivity”. Then “QFQLVESGGGLVQAGGSLRLSCAASGRIFVRYAMGWYRQAPGKERELVAGITWSGGSTYYADSVKGRFTISRDNSKNTVYLQMNSLKPEDTAVYYCAAERRFYTSYKSKMESCGQGTQVTVSS”, with “high polyreactivity”; and “QFQLVESGGGLVQAGGSLRLSCAASGRIFVYNAMGLYRQAPGKEREFVATITSSGGRTYYADSVKGRFTISRDNAKNTVYLQLNSLKPEDTAVYYWAARPQNNGRNPLYRYNYWGQGTQVTVSS”, with “high polyreactivity”; and “QFQLVESGGGLVQAGGSLRLSCAASGRIIAFYARGWYRQAPGKERELVAAITSGSSTNYADSVKGRFTISRDNAKNTVYLQMNSLKPEDTAVYYCAAEGLRKGDRTDWKLYEYWGQGTQVTVSS”, with “high polyreactivity”. Then “QFQLVESGGGLVQAGGSLRLSCAASGRTFGSNVRGWYRQAPGKERELVAAISVSGGSTYYADSVKGRFTISRDNAKNTVYLQMNSLKPDDTAVYYCAADYPTLGYTQNDYWGQGTQVTVSS”, with “low polyreactivity”; and “QFQLVESGGGLVQAGGSLRLSCAASGRTFIVYAMGWYRQAPGKERELVAGITLGSTNYADSVKGRFTISRDNAKNTVYLQMNSLKPEDTAVYYCAARSSRRGPISEGDYWGQGTQVTVSS”, with “high polyreactivity”; and “QFQLVESGGGLVQAGGSLRLSCAASGRTFKKYAMGWYRQAPGKESELVAAITFSGGSTYYADSVKGRFTISRDNANNTVYLQMNSLKPEDTAVYYCAAKRLGGSYGSDYWGQGTQVTVSS”, with “high polyreactivity”.

On to “QFQLVESGGGLVQAGGSLRLSCAASGRTFKYNAMGWYRQAPGKERELVAAISSTGSTNYADSVKGRFTISRDNAKNTVYLQMNSLKPEDTAVYYSAARGLPSNYYYYVHGYIMYYWGQGTQVTVSS”, for which the “polyreactivity (PSR sort gate)” value was “low polyreactivity”.
